Data: article PMC12416549 (2024)
Residue numbers refer to the chain shown, from its start. Numbers in names are those of the source. Values belong to the binder of their own block, whether it stands above or below them.

Target: T1, TNFR1 (Homo sapiens, UniProt P19438)
T1 chain: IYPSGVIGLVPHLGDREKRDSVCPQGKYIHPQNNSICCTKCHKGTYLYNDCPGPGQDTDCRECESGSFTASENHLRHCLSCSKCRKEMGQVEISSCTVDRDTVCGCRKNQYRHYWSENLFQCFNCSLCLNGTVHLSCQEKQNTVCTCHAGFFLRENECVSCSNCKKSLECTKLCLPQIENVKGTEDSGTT
Assay: yeast display SC50

apparent Kd (screen): 0.49 nM
B1: A87H (designed binder)
chain: MTLQELLREEALRRAEAEAFRYALELLAEKFPEQKEYLLDLAEEIESQIRSLSGVDVEDVRKFLDKEWAWVKELLAEHPAELAEVEHARAARLAELRAEVEAKVAA

apparent Kd (screen): 1.69 nM
B2: L93P (designed binder)
chain: B1 chain with H87A, L93P

apparent Kd (screen): 0.539 nM
B3: E25L (designed binder)
chain: B1 chain with E25L, H87A

apparent Kd (screen): 12.5 nM
B4: L74R (designed binder)
chain: B1 chain with L74R, H87A

apparent Kd (screen): 0.49 nM
B5: A83R (designed binder)
chain: B1 chain with A83R, H87A

apparent Kd (screen): 0.446 nM
B6: L24T (designed binder)
chain: B1 chain with L24T, H87A

apparent Kd (screen): 0.49 nM
B7: E29R (designed binder)
chain: B1 chain with E29R, H87A

apparent Kd (screen): 0.718 nM
B8: A19H (designed binder)
chain: B1 chain with A19H, H87A

apparent Kd (screen): 0.653 nM
B9: A98I (designed binder)
chain: B1 chain with H87A, A98I

apparent Kd (screen): 13.8 nM
B10: L74K (designed binder)
chain: B1 chain with L74K, H87A

apparent Kd (screen): 0.304 nM
B11: I49H (designed binder)
chain: B1 chain with I49H, H87A

apparent Kd (screen): 0.79 nM
B12: K72L (designed binder)
chain: B1 chain with K72L, H87A

apparent Kd (screen): 8.56 nM
B13: Y37Q (designed binder)
chain: B1 chain with Y37Q, H87A

apparent Kd (screen): 0.142 nM
B14: A106Q (designed binder)
chain: B1 chain with H87A, A106Q

apparent Kd (screen): 0.405 nM
B15: E9W (designed binder)
chain: B1 chain with E9W, H87A

apparent Kd (screen): 0.539 nM
B16: E36L (designed binder)
chain: B1 chain with E36L, H87A

apparent Kd (screen): 0.956 nM
B17: E43Q (designed binder)
chain: B1 chain with E43Q, H87A

apparent Kd (screen): 0.593 nM
B18: D56E (designed binder)
chain: B1 chain with D56E, H87A

apparent Kd (screen): 2.48 nM
B19: V71S (designed binder)
chain: B1 chain with V71S, H87A

apparent Kd (screen): 0.79 nM
B20: R61S (designed binder)
chain: B1 chain with R61S, H87A

apparent Kd (screen): 0.653 nM
B21: A69V (designed binder)
chain: B1 chain with A69V, H87A

apparent Kd (screen): 0.49 nM
B22: L27R (designed binder)
chain: B1 chain with L27R, H87A

apparent Kd (screen): 0.49 nM
B23: R50Q (designed binder)
chain: B1 chain with R50Q, H87A

apparent Kd (screen): 0.869 nM
B24: A42N (designed binder)
chain: B1 chain with A42N, H87A

apparent Kd (screen): 16.7 nM
B25: L7K (designed binder)
chain: B1 chain with L7K, H87A

apparent Kd (screen): 10.4 nM
B26: L38E (designed binder)
chain: B1 chain with L38E, H87A

apparent Kd (screen): 3.99 nM
B27: A42K (designed binder)
chain: B1 chain with A42K, H87A

apparent Kd (screen): 1.27 nM
B28: L6D (designed binder)
chain: B1 chain with L6D, H87A

apparent Kd (screen): 10.4 nM
B29: E10R (designed binder)
chain: B1 chain with E10R, H87A

apparent Kd (screen): 0.718 nM
B30: I45W (designed binder)
chain: B1 chain with I45W, H87A

apparent Kd (screen): 1.05 nM
B31: V60D (designed binder)
chain: B1 chain with V60D, H87A

apparent Kd (screen): 0.446 nM
B32: K30V (designed binder)
chain: B1 chain with K30V, H87A

apparent Kd (screen): 10.4 nM
B33: A28W (designed binder)
chain: B1 chain with A28W, H87A

apparent Kd (screen): 9.41 nM
B34: A19W (designed binder)
chain: B1 chain with A19W, H87A

apparent Kd (screen): 0.49 nM
B35: K66L (designed binder)
chain: B1 chain with K66L, H87A

apparent Kd (screen): 0.593 nM
B36: A94D (designed binder)
chain: B1 chain with H87A, A94D

apparent Kd (screen): 11.4 nM
B37: G54H (designed binder)
chain: B1 chain with G54H, H87A

apparent Kd (screen): 0.304 nM
B38: S51H (designed binder)
chain: B1 chain with S51H, H87A

apparent Kd (screen): 1.16 nM
B39: L64I (designed binder)
chain: B1 chain with L64I, H87A

apparent Kd (screen): 0.49 nM
B40: E25G (designed binder)
chain: B1 chain with E25G, H87A

apparent Kd (screen): 0.446 nM
B41: P79E (designed binder)
chain: B1 chain with P79E, H87A

apparent Kd (screen): 0.79 nM
B42: L38H (designed binder)
chain: B1 chain with L38H, H87A

apparent Kd (screen): 0.653 nM
B43: L39V (designed binder)
chain: B1 chain with L39V, H87A

apparent Kd (screen): 2.73 nM
B44: L52N (designed binder)
chain: B1 chain with L52N, H87A

apparent Kd (screen): 13.8 nM
B45: D40I (designed binder)
chain: B1 chain with D40I, H87A

apparent Kd (screen): 1.27 nM
B46: L41P (designed binder)
chain: B1 chain with L41P, H87A

apparent Kd (screen): 0.869 nM
B47: A80S (designed binder)
chain: B1 chain with A80S, H87A

apparent Kd (screen): 2.05 nM
B48: S51E (designed binder)
chain: B1 chain with S51E, H87A

apparent Kd (screen): 0.446 nM
B49: L96N (designed binder)
chain: B1 chain with H87A, L96N

apparent Kd (screen): 0.79 nM
B50: Y22A (designed binder)
chain: B1 chain with Y22A, H87A

apparent Kd (screen): 0.49 nM
B51: R21Y (designed binder)
chain: B1 chain with R21Y, H87A

apparent Kd (screen): 0.718 nM
B52: L12T (designed binder)
chain: B1 chain with L12T, H87A

apparent Kd (screen): 1.05 nM
B53: F20S (designed binder)
chain: B1 chain with F20S, H87A

apparent Kd (screen): 0.653 nM
B54: A83N (designed binder)
chain: B1 chain with A83N, H87A

apparent Kd (screen): 0.49 nM
B55: Q4R (designed binder)
chain: B1 chain with Q4R, H87A

apparent Kd (screen): 0.869 nM
B56: V57Q (designed binder)
chain: B1 chain with V57Q, H87A

apparent Kd (screen): 0.653 nM
B57: P79F (designed binder)
chain: B1 chain with P79F, H87A

apparent Kd (screen): 0.49 nM
B58: P79W (designed binder)
chain: B1 chain with P79W, H87A

apparent Kd (screen): 3.99 nM
B59: I45K (designed binder)
chain: B1 chain with I45K, H87A
